Results as given in a protein production outcome set (Wang et al. 2014).

Assay: label from the status in PepcDB records

| Sequence | protein production |
| --- | --- |
| RYPTNNFGNCTGCSATFSVLKKRRSCSNCGNSFCSRCCSFKVPKSSMGATAPEAQRETVFVCASCNQTLSK | not failed |
| SAAVGAEARGAWCVPCLVSLDTLQELCRKEKLTCKSIGITKRNLNNYEVEYLCDYKVVKDMEYYLVKWKGWPDSTNTWEPLQNLKCPLLLQQFSNDKHNYLSQVITSEEAERRGQFYDNKGITYLFDLDYESDEFTVDAARYGNVSHFVNHSCDPNLQVFNVFIDNLDTRLPRIALFSTRTINAGEELTFDYQMKGSGDISSDSIDHSPAKKRVRTVCKCGAVTCRGYLN | failed |
| SADEAPSSADEAPSSAVEQIVAPVDFSDLTEVALRHVAQIAPLYDVPVTLVHVVEDPTMPSVYEVNASAVRARAAEQRAEEALQSLGAPIEETGVSVSYLVHRGQTTSTVVEATGHRDTLTVMGTKGLSGLRRVMLGSVTEAVIRASDGPVLAVPASAQEASPANE | failed |
| SADSEADKPLRKISAAFKKLAIIVNSPNPEVPVTQFSHACSLVSPLFGCLGIAFKFAEMDYVAKVDDLVRASSSISTLVVMMDKDIEADCVRKAGSHTRNLLRVKRGLDMVKVLFEQIIASEGDNSLKDPATKSYAQVFAPHHGWAIRKAVSLGMYALPTRAHLLNMLKEDEAAAKIHMQSYVNSSAPLITYLDNLFLSKQLGIDW | failed |
| SAEASSANLGSGCEEKRHEGSSSESVPPGTTISRVKLLDTMVDTFLQKLVAAGSYQRFTDCYKCFYQLQPAMTQRIYDKFIAQLQTSIREEISDIKEEGNLEAVLNALDKIVEEGKVRKEPAWCEAQRCRVQQRCSLCVQAGGQRGSEETQALPVSMAGSPSPLPGSPGAQEGGV | failed |
| SAKDPLAEAGLHFDELNKLRVLEPDVSQKTTELKEECEEFVDKIGQFQKIVGGLIELVDELAKEAETEKMKAIGARNLLKSVEKQREAQHQQLQALIAEKKMQLERYRIEYEALQKVEAEQSEFIDQFILQK | failed |
| SAMAQKEEGHEAAAAEAKKETDLAHVDQVETFVGKEKYYVVKGTDKKGTALYVWVPADKKAKILSKEAKEGISEDKAAKIIKDEGLVSKQKEVHLAREGNVLLWEVTYLDKEGQYSLSYVDFTTGKILKNITP | not failed |
| SATERADSADFRTIIRNKIPLMDVRAPVEFGKGAFDLSINYPLMNNDERADVGICYKQNGQEAAIKLGNALVSGQSKARRLTQWQTFARENPQGYLYCFRGGLRSQTVQRWLKESGINYPLITGGYKALRQFLLNELEQLALH | failed |
| SCGDKMNKNTGALEFDSIQVNETAHLFGDTAKPACNLTINFAYPVKSTDNKLKDSLNSYFIAACFGEGYIGEKPAQVVKEYTEHYVKEYRTDLEPMYAEDEKNKESEGSIGAWYSYYKGIESHVQLYYKNLLVYRINYNEYTGGAHGIYMTTFLNMDLINLRPLKLDDIFTGDYKEALTDLLWNQLMADKKVTTHEALEDMGYGSTGDIAPTENFYLDKDGITFYYNVYDITPYAMGPVEIKIPYEMMEHMLGSNPIIGEMKSK | not failed |
| SDPLYVPDPDPTKFPVNRNLTRKAGYLNARNKTGLVSSTWDRQFYFTQGGNLMSQARGDVAGGLAMDIDNCSVMAVDCEDRRYCFQITSFDGKKSSILQAESKKDHEEWICTINNISKQIYLSENPEETAARVNQSALEAVTPSPSFQQRHESLRPAAGQSRPPTART | failed |
| SEEEEYEQIPQENPPEELSQDPVLELSGGLREKEQKTPRRLRLILMGKTGSGKSATGNSILGRDVFESKLSTRPVTKTSQRRSREWAGKELEVIDTPNILSPQVSPEVADAICQAIVLSAPGPHAVLLVTQLGRFTDEDQQVVRRLQEVFGVGVLGHTILVFTRKEDLAGGSLEDYVRETNNQALAWLDVTLARRHCGFNNRAQGEEQEAQLRELMEKVEAIMWENEGDYYSNKAYQYTQQNFRLKELQERQVSQGQGSEDVPGEESWLEGLSQIQKESEEAHRCLLGKADL | not failed |
| SELSQLLNEIRANYEKILTRNQIETVLSTRIQLEEDISKKMDKDEEALKAAQAELKEARRQWHHLQVEIESLHAVERGLENSLHASEQHYQMQLQDLETVIEGLEKELQEVRRGIEKQLQEHEMLLNTKMRLEQEIATYRHLLEKEEIRYYGCIQGGKKDKKPTTSRVGFVLPSAIINEISFTTKVPQKYENENVETVTKQAILNGSIVKESTEAHGTIQTEKVDEVIKEWEGSFFKDNPRLRKKSVSLRFDLHLAATDEGCLETKQDNLPDIEVRLIMRRSCSIPSIKPPSTAN | not failed |
| SESQSEEIDCNDKDLFKAVDAALKKYNSQNQSNNQFVLYRITEATKTVGSDTFYSFKYEIKEGDCPVQSGKTWQDCEYKDAAKAATGECTATVGKRSSTKFSVATQTCQITPAEGPVVTAQYDCLGCVHPISTQSPDLEPILRHG | not failed |
| SFGVKDAIFKIKRSIAGTDSSDSTAYTTASESSPQLKDSHNPFRNKTTSERTIVEEGSLPPVRLNGYLPSTKNKLLTPEMCDEIRTLMPTRIQLYTEWNLLYSLEQHGSSLHSLYSNVAPDSKEFRRVGYVLVIKDRKNGIFGAYSNEAFHPNEHRQYTGNGECFLWKLDKVPDVNISEKEESEQEGKEGKEEGDKEERWRFSGYPYTGVNEFAIYCTSEFLSMGAGDGHYGLLCDDGLLHGVSNPCQTYGNEVLSKEGKKFSIVALEVWRVG | not failed |
| SFPNRRIVTTVFNDEGIQFLVTRYIKALNPPQQLLDIFLHNSNATFDLIARFVSLIPFVPNTPDENDGSDIWMTSEHCISLAIGNKEEHAILLCNFFLYFGKKALVLLGTSVLEGHVAYVVTQETNEYLLWNPSTGQCYKQFDPFCPLKSVDCLFDDRNVWFNIQQNNTPMAVFFDYSKESFWKQLLPKNVQGTKIQSIQVTGFPIQMPYIDVQSIIDAVYQTGIHSAEFPQTEFALAVYIHPYPNNILSVWVYLASLVQHQ | not failed |
| SGESIPLAAPVPVEQAVLETFFSHLGIFSYDKAKDNVEKEREANKSAGGSWLSLLAALAHLAAAEKVYHSLTYLGQKLGGQSFFSRKDSIRTIYTSLHNELKKVVAGRGAPGGTAPHVEELLPHLSEQLCFFVQARMEIADFYEKMYALSTQKFINTEELVSTLDTILRKYSSRFHHPILSPLESSFQLEVGVLSHLLKAQAQISEWKFLPSLVTLHNAHTKLQSWGQTFEKQRETKKHLFGGQSQKAVQPPHLFLWLMKLKTMLLAKFSFYFHEALSRQTTASEMKALTAKANPDLFGKISSFIRKYDAANVSLIFDNRGSESFQGHGYHHPHSYREAPKGVDQYPAVVSLPSDRPVMHWPNVIMIMTDRASDLNSLEKVVHFYDDKVQSTYFLTRPEPHFTIVVIFESKKSERDSHFISFLNELSLALKNPKVFASLKPGSKG | not failed |

| Sequence | protein production |
| --- | --- |
| SGMLERLPLCGKAFADMMGKVDVWKWCNLSEFIVYYESFTNCTEMEANVVGCYWPNPLAQGFITGIHRQFFSNCTVDRVHLEDPPDEVLIPLIVIPVVLTVAMAGLVVWRSKRTDTLL | failed |
| SGQAYIGTYPNGDKIFVKINTTPILAALAKEQIAPQLLWAKRLGNGDMMSAQEWLDGRLLTRADMNSKQIIQVLLQMHKSKPLVNQLLQLNYKVETPLDLLLSWERSAPYQISENAYLQSVVAEMKRNLPDFKKDYATIVHGDVRHSNWVITTSGLVYLVDWDSVRVTDRMYDVAHILSHYIPHTRWAEWLSYYGYKQNTKVFQKIKWYGQLSYLSQILKYYENR | failed |
| SHLVVESFPSYRDVTLFEGKRVSFYKRAQILVADTWSVLEGKGDGCFKDISSITMFADYRLPQVLAHLGALKYSDDLLKKLLKGEMLSYGDRQEVEIRGCSLWCVELIRDCLLELIEQKGEKPNGEINSILLDYYLWDYAHDHREDMKGIPFHRIRCIYY | failed |
| SIDAICAYFYAGYDVPRVLNEGGWFFLENILLIKSVGGRKPPLTDNKLRIKFLQTTKMTHVPNREPSSLFRFAAFSMIENKTINSSTVHDAYGIVVRVGNITRPDFVPQASENTILSQFLEFEIKNSWGKSLICVASGYTCELFVQLWRELGLELGYHWNFGMNPTICVLRFWNVDDHEGRQCLISHNGASKITFNQSYPEINMDRVRTQFLQRMQTPELGEVVDEN | not failed |
| SIQGKVALIAGGAKNLGGLIARDLAAHGARAIAIHYNSPASKADADATVAALQAAGAQAVALQGDLTTAAAVEKLYADALAAVGRPDIAINTVGKVLKKPFSEISEAEYDEMAAVNAKSAFFFLKEAGRHVNDHGKIVTLVTSLLGAFTPFYSAYAGTKAPVEHYTRAAAKEFGARGISVTAVGPGPMDTPFFYGQESPEAVAYHQSAAALSPHSPTGLTHIEDVVPFIRHLVSDGWWITGQTLLINGGY | failed |
| SIQKDLANIAEVEVSIPAKLHNSLIGTKGRLIRSIMEECGGVHIHFPVEGSGSDTVVIRGPSSDVEKAKKQLLHLAEEKQTK | not failed |
| SISNRDTNGMPFAKETLEQQQAVEKKNEILEMSYEIAKLLETGLDRETLQVAIELLEQGFDPYALASVIKELKRGNNQTTE | failed |
| SKETIMNQKLTKRQAEVHTGRKGTAHRKKVVHTTAEDKKFQFSLKKLGVNNIPGIEEVNMFTHQGTVIHFNNPEVQASLAANTFTMTGHAETKQLTEMLLSIDHKPVLQMV | not failed |
| SKNEKEQLSKAKASVSSLNKVIQTKLTVGNLGLGLVVIQNGPYLQISHLINKGAAASDGILQPGDVLISVGHANVLGYTLREFLKLLQNITIGTVLQIKAYRGFLEIPQEWQD | not failed |
| SLEEVVNELTEEIRELYTADQVPWVIGYSGGKDSTAVLQLVWMALKGLPAEQRTKAVHVISTDTLVENPVVAAWVSASLGTMQDAAQAQGLPVEPHRLTPEIKDTFWVNLLGRGYPAPRPKFRWCTERLKIKPSNAFIRSVVAAHGEAIMVLGIRKTESQARARAMEKHEKRRVRDRLSPNANLPNSLVYSPVEDWTNDDVWEFLMQKPNPWGYTNQDLLTMYQGASSDGECPLVVDSTTPSCGSSRFGCWT | failed |
| SLETVQLRNPPRRQLKKLDEDSLTKQPEEVFDVLEKLGEGSYGSVYKAIHKETGQIVAIKQVPVESDLQEIIKEISIMQQCDSPHVVKYYGSYFKNTDLWIVMEYCGAGSVSDIIRLRNKTLTEDEIATILQSTLKGLEYLHFMRKIHRDIKAGNILLNTEGHAKLADFGVAGQLTDTMAKRNTVIGTPFWMAPEVIQEIGYNCVADIWSLGITAIEMAEGKPPYADIHPMRAIFMIPTNPPPTFRKPELWSDNFTDFVKQCLVKSPEQRATATQLLQHPFVRSAKGVSILRDLINEAMDVKLKRQESQQREEG | not failed |
| SLKGKIEWVRVSAVVHSTEDREKVGEAISTLFPFEFEIAVSKAKGHYGNPMEYLEVELTKSSEIKKFWKNLLELLGEQAEEILSTLEDRIDEQNVLHIRIDKQKAYLGEVSLTSGGDPIAVKLRLVTYPSKREKVIEFARELCTIS | not failed |
| SLNDLPGAGRMDVLCRCTSQALFISHGIRRDVEVYLLLLGPPSPPKSILIKGDEVRRMSPDERNVAGHIKKALAVECGKSWKKVHSGVYVSRKGLEELIEELSEKYSIIYLKEDGVDISNAQLPPNPLFVIGDHEGLTEEQEKVVERYAALKLSLSPLSLLAEQCVVIAHHHLDRLQF | not failed |
| SLQTSDVVIHRKENEGFGFVIISSLNRPESGSTITVPHKIGRIIDGSPADRCAKLKVGDRILAVNGQSIINMPHADIVKLIKDAGLSVTLRIIPQEELNSP | not failed |
| SLRTKSWTDDLKVCNQTGVGEAINQIYKDDGRRCEGYESRDKKCLCISDNNTSLYAILSGHNGVTVAENALQEMAAELLLGQLNVCNTDEAVKELIRQSFMSVEKGYFDSINPHVATKTAIQLHLSADGMNQYEISQQFENVLQKLDSLNNALSVGSSAVLALIHRSHLYLGNIGNCRALLCKTDEHDTLTVTQLSVDHNLLNAEEAARLFRLGLMAQNFEGVPLYSTRCIGNYLGKAGYKDCNFLSSATAEPVIFEPEIVGGIQITPACRFLVLMSSGLCRALHEIFPGDASTGNRELVRMISEEFQNQSTLGGVAQSVVHRIVQAHHDTYMQLVEEHRSVTFNSRDDVTLLIRNFNYA | not failed |
